Assay results published in the RNAGym collection of RNA variant scans (doi:10.1073/pnas.2313332121).

B1: TPR t1 (parent)
chain: GACCAAUCUGCCCUCAGAGCUCGAGAACAUCUUCGGAUGCAGAGGAGGCAGGCUUCGGUGGCGCGAUAGCGCCAACGUCCUCAACCUCCAAUGCAUCCCACCACAUGAUGAUGCCUGAAGAGCCUUGGUUUUUUG

Variants of: B1
Experiment: polymerase ribozyme fitness, log enrichment relative to wild type (log ratio); higher = more active; in vitro selection for triplet polymerase activity
Summary of the method: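 A single round of triplicate in vitro selection, including frozen incubation at −7 °C, was applied to PCR-built, transcribed mutant libraries of each subunit of a heterodimeric triplet polymerase ribozyme. Illumina sequencing of input and output libraries retained genotypes with ≥10 input reads and ≥1 read per output. Fitness is the base-2 logarithm of genotype enrichment divided by wild-type enrichment, from inverse-variance-weighted replicate averages.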

| Variant | polymerase ribozyme fitness (log ratio) |
| --- | --- |
| GACAAAUCUGCCCUCAGAGCUCGAGAACCUCUUCGGAUGCAGAGGAGGCAGGCUUCGGUGGCGCGAUAUCGCCAACGUCCUCAACCUCCAAUGCAUCCCACCACAUGAUAAUGCCUGAAAAGCCUUAGUUUUUUG | -4.61 |
| GACCAAUCUGCCCUCAGAGCUCGAGAACAUCUUCGGAUGGAGACGAGGCAGGCUUCGGUGGCGCGAUAGCGACAACGGCCUCAACCUCCAAUGGAUCCCACCACAUGAUGAUGCCUGAAGCGCCUUGUUUUUUUG | -6.15 |
| GACCAAUCUGCCCUCAGAGCUCGAGAACAUCUUCGGAUGCAGAGGAGGCAGGCUUCGGUGGCGCGAUAGCGACAACGUCCUCAACCUUCAAUGCAUCCCACCACAUGAUGAUGCCUGAAGAGCCUUGGUUUUUUG | -0.32 |
| GACCAAUCUGCCCUCAGAGCUCGAGAACAUCUUCGGAUGCAGAGUAGGCAGGCUUCGGUGGCGCGAUAGCGCCAACGUCCUCAACCUCCAAUGCAUCCCACCACAUGAUGAAGCCUGAAGAGCCUUGCUUUUUUG | -2.89 |
| GACCAAUCUGCCCUCAGAGCUCGAGAACAUCUUCGGAUGCAGAGGAGGCAGGCUUUGGUGGCGCGAUAGCGCCAACGUCCUCAACCUCCAAUGCAUCCCACCACCUGAUGAUGCCUGAAGAGUCUUGGUUUUUUG | -1.18 |
| GACCAAUCCGCCCUCAGAGAUCGAGAACAUCUUCGGAUGCAGAGGAGGCAGGCUUCGGUGGCGCGAUACCGCCAACGUCCUCAACCUCCAAUGCAUCCCAACACAUGAUGAUGCCUGAAGAGCCUUGGUUUUUUG | -6.63 |
| GACCAAUCUGCCCUCAGAGCUCGAGAACAUCUUCGGAUGCAGAGGAGUCAGGUUUCGGUGGCGCGAUAGCGCCAACGUCCUCAACCUCCAACGCAUCCCUUCACAUGAUGAUGCCUGAAGAGCAUUGGUUGUUUG | -2.57 |
| GACCAAUCUGCCCUCAGAGCUCGAGAACAUCUUCGGAUGCAGAGGAUGCGGGCUUCGGUGGCGCGAUAGCGCCAACGUCCUCAACCUCCAAUGCAUCCCACCACAUGAUGAUGCCUGAAGAGCCUUGGUUUUUUG | -1.99 |
| GACCAAUCUGCCCUCAGAGCUCGAGAACAUCUUCGGAUGCAGAGGAGGCAGGCUUCGGUGCCGCGAUAGCGCCAACGUCCUCAACCUCCAAUGGAUCCCACCACAUGAUGAUGCCUGAAGAGCCUUGGUUUUUUG | -2.92 |
| GUCCAAUCUGACCUCAGAGCUCGAGAACAUCUACGGUUGCAGAGGAGGCAGGCUUCGGUGUCGCGAUAGCGCCAACGUCCUCAACCUCCAAUGCAUCCCACCACAUGAUGAUGCCUGAAAAGCCUUGGUUUUUUG | -4.91 |
| GACCAAUCUGCCCUCAGAGCUCGGGAACAUCUUCGGAUGCAGAGGAGGCAGGCUUCGGUGGUGCGAUAGCGCCAACGUCCUCAACCUCCAAUGCAUCCCACCAAAUGAUGAUGCAUGAAGAGCCUUGGUUUUUUC | -4.17 |
| GAUCAAUCUGCCCUCAGAGCUCGAGAACAUCUUCGGAUGCAGAGGAGGCAGGCUUCGGUGGCGCGAUAGCGCCAACGUCCUCAACCUCCAAUGCAUCCCACCACAUGAUGAAGCCUGAAGAGCCUUGGUUUUUUG | 0.197 |
| GACCAAUCUGCCCUCAGAGCUCGAGAACAUCUUCGGAUGCAGAGGAGGCAGGCUUCGGUGGCGCGAUAGCGCCAACGUCCUCAACCUCCAAUGCAUCCCACCACAUGAUGAUGCUUGAAGAGCCUUGGUUAUUUG | -0.58 |
| GACCAAUCUGUCCUCAGAGCUCGAGAACAUCUUCGGAUGCAGAGAAGGCAGGCUUCGGUGGCGCGAUAGCGCCAACGUCCUCAACCUCGAAUGCAUCCCACCACAUGAUGAUGCCUGAAGGGCCUUGGUUUUUUG | 0.687 |
| GACCAAUCUGCCCUCAGACCUCGAGAACAUCUUCGCAUGCAGAGGAGGCAGGCUUCGGUGGCGCGAUAGCUCCAACGUCCUCAACCUCCAAUGCAUCCCACCACAUGAUGAGGCCCGAAGAGCCUUGGUUUUUUG | -3.91 |
| GACCAAUCUGCCCUCAGAGCUCGAGAACACCUUCGGAUGCAGAGUAGGCAGGCUUCGGUGGCGCGAUAGCGCCAACGUCCUCAACCUCCAAUGCAUCCCACCACAUGAUGAUGCCUGAAGAGCCUUGGUUUUUUG | -4.52 |
| GACCAAUCUUCCCUCAGAGCUCGAGAACAUCUUCGGAUGCAGAGGAGUCAGGCUUCGGUGGCGCGAUAGCGCCAACGUCCUCAACCUCCAAUACAUCCCACCACAUGAUGAUGCCUGAAGAGGCUUGGUUUUUUG | 0.384 |
| GACCAAUCUGCCCUCACAGCUCGAGAACAUCUUCGGAUGCAGAGGAGGCAGGCUUCGGUGGCGCGAUAGCGCCAACUUCCUCAACCUCCAUUGCAUCCCACCACAUGAUGAUGCCUGAAGAGACUUGGUUUAUUG | -3.88 |
| GAACAAUCUGCCCUCAGAGCUCGAGAACAUCUUCGGAUGCAGAGGAGGCAGGCUUAGGUGGCGCGAUAGCGCCAACGUCCUCAACCUCAAAUGCAUCCCACCACAUGAUGAUGCUUGAAGAGCCUUGGUUUUUUG | -3.79 |
| GCCCAAUCUGCCCUCAGAGCUCGAGAACAUCUACGGAUGCAGAGGAGGCAGGCUUCGGUGGCGCGAUAGCGCCAACGUCCUCAACCUCCAAUGCAUACCACCACAAGAUGAUGCCUGAACAGCCUAGGUUUUUUG | -6.8 |
| GACCAAUCUGCCCUCAGAGCUAGAGAACAUCUUCGGAUGCAGAGGAGGCAGGCUUCGGUGGCGCGAUAGCGCCGACGUCCUCAACCUCCAAUGCAUUCCACCACAUGAUGAUGCCUGAAGAGCCUUGGUUUUUUG | -4.56 |
